Tested on: Escherichia coli TOP10
Test: shrunken log2 fold change of peptide-encoding DNA abundance (4.5 h post-induction vs induction); higher = less antimicrobial activity (less host growth inhibition)
Conditions: time post-induction: 4.5 h; library: site-saturation at positions 5, 18, 19, 20
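Further: peptides expressed intracellularly from a pBAD plasmid library in pooled LB shake-flask culture, induced with 0.3% L-arabinose, DNA abundance read by NGS, three biological replicates, DESeq2 with apeglm shrinkage.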

Sequence | shrunken log2 fold change
RRIRYRPPRLPRPRPRPKWGPRP | -0.297
RRIRYRPPRLPRPRPRPVVPPRP | -0.0502
RRIRTRPPRLPRPRPRPSYPPRP | -1.08
RRIRFRPPRLPRPRPRPESEPRP | 0.0687
RRIRHRPPRLPRPRPRPLMTPRP | -0.192
RRIRTRPPRLPRPRPRPARMPRP | 0.127
RRIRQRPPRLPRPRPRPEQVPRP | 0.107
RRIRWRPPRLPRPRPRPHQRPRP | -0.0218
RRIRSRPPRLPRPRPRPCWHPRP | -0.245
RRIRQRPPRLPRPRPRPETYPRP | -0.213
RRIRDRPPRLPRPRPRPQGHPRP | -0.0748
RRIRERPPRLPRPRPRPAQPPRP | 0.0203
RRIRLRPPRLPRPRPRPGAWPRP | 0.0481
RRIRVRPPRLPRPRPRPKHHPRP | -0.357
RRIRARPPRLPRPRPRPPIDPRP | 0.647
RRIRVRPPRLPRPRPRPNPDPRP | -0.0161
RRIRSRPPRLPRPRPRPSHPPRP | -0.277
RRIRYRPPRLPRPRPRPQAHPRP | -0.149
RRIRVRPPRLPRPRPRPYWPPRP | -0.182
RRIRVRPPRLPRPRPRPHNTPRP | -0.353
RRIRWRPPRLPRPRPRPMWAPRP | 0.385
RRIRIRPPRLPRPRPRPKQRPRP | 0.0202
RRIRHRPPRLPRPRPRPGFIPRP | 0.043
RRIRMRPPRLPRPRPRPNPPPRP | 0.311
RRIRARPPRLPRPRPRPMMFPRP | 0.166

Sequence | shrunken log2 fold change
RRIRNRPPRLPRPRPRPQGRPRP | -0.0865
RRIRSRPPRLPRPRPRPGQPPRP | 0.214
RRIRTRPPRLPRPRPRPGRPPRP | 0.217
RRIRFRPPRLPRPRPRPLMKPRP | -1.06
RRIRGRPPRLPRPRPRPQFPPRP | -0.0214
RRIRERPPRLPRPRPRPIWDPRP | -0.254
RRIRKRPPRLPRPRPRPLVYPRP | -0.23
RRIRVRPPRLPRPRPRPDNVPRP | 0.171
RRIRVRPPRLPRPRPRPAMGPRP | 0.34
RRIRGRPPRLPRPRPRPSRIPRP | -0.234
RRIRMRPPRLPRPRPRPVMKPRP | 0.0713
RRIRPRPPRLPRPRPRPSFHPRP | 0.626
RRIRARPPRLPRPRPRPYSLPRP | -0.187
RRIRGRPPRLPRPRPRPWFIPRP | -0.361
RRIRKRPPRLPRPRPRPTTRPRP | 0.717
RRIRMRPPRLPRPRPRPPLWPRP | 1.31
RRIRSRPPRLPRPRPRPPQNPRP | 0.294
RRIRNRPPRLPRPRPRPLRGPRP | 0.654
RRIRIRPPRLPRPRPRPPMRPRP | 0.591
RRIRWRPPRLPRPRPRPSKPPRP | -0.0185
RRIRWRPPRLPRPRPRPMGGPRP | 0.116
RRIRPRPPRLPRPRPRPMAAPRP | 0.208
RRIRQRPPRLPRPRPRPVHLPRP | 0.00299
RRIRKRPPRLPRPRPRPQFAPRP | -0.0223
RRIRQRPPRLPRPRPRPLHFPRP | -0.0222

Sequence | shrunken log2 fold change
RRIRKRPPRLPRPRPRPVIRPRP | 0.0302
RRIRERPPRLPRPRPRPLPCPRP | -0.315
RRIRFRPPRLPRPRPRPTNCPRP | 0.0341
RRIRARPPRLPRPRPRPQYKPRP | -0.303
RRIRNRPPRLPRPRPRPGSQPRP | 0.0302
RRIRLRPPRLPRPRPRPDMLPRP | -0.125
RRIRIRPPRLPRPRPRPSTQPRP | -0.0353
RRIRIRPPRLPRPRPRPNVCPRP | -0.204
RRIRIRPPRLPRPRPRPWFMPRP | -0.503
RRIRARPPRLPRPRPRPHTYPRP | -0.126
RRIRVRPPRLPRPRPRPTRIPRP | 0.108
RRIRYRPPRLPRPRPRPFEPPRP | -0.343
RRIRPRPPRLPRPRPRPQTNPRP | -0.0828
RRIRSRPPRLPRPRPRPLNGPRP | -0.322
RRIRQRPPRLPRPRPRPKMTPRP | 0.00734
RRIRGRPPRLPRPRPRPCTNPRP | 0.247
RRIRFRPPRLPRPRPRPHGLPRP | 0.0196
RRIRKRPPRLPRPRPRPSLLPRP | -0.0176
RRIRKRPPRLPRPRPRPEYFPRP | 0.084
RRIRVRPPRLPRPRPRPDQTPRP | -0.002
RRIRRRPPRLPRPRPRPCKGPRP | 0.0306
RRIRIRPPRLPRPRPRPHCSPRP | -1.21
RRIRYRPPRLPRPRPRPTGPPRP | 0.0492
RRIRHRPPRLPRPRPRPHATPRP | 0.0228
RRIRPRPPRLPRPRPRPIWGPRP | 0.0815

Sequence | shrunken log2 fold change
RRIRDRPPRLPRPRPRPWWEPRP | 0.186
RRIRVRPPRLPRPRPRPAGWPRP | 0.689
RRIRMRPPRLPRPRPRPHMVPRP | -0.0116
RRIRIRPPRLPRPRPRPVQHPRP | -0.38
RRIRPRPPRLPRPRPRPFHNPRP | -0.541
RRIRMRPPRLPRPRPRPVNRPRP | 0.105
RRIRPRPPRLPRPRPRPCSPPRP | 0.0563
RRIRRRPPRLPRPRPRPCEQPRP | -0.0395
RRIRPRPPRLPRPRPRPTRPPRP | 0.782
RRIRWRPPRLPRPRPRPWPIPRP | 0.0793
RRIRARPPRLPRPRPRPMRMPRP | 0.784
RRIRNRPPRLPRPRPRPLRCPRP | 0.0876
RRIRERPPRLPRPRPRPAKDPRP | -0.284
RRIRYRPPRLPRPRPRPWFVPRP | -0.271
RRIRKRPPRLPRPRPRPSYDPRP | 0.0212
RRIRERPPRLPRPRPRPLEYPRP | -0.494
RRIRCRPPRLPRPRPRPNSVPRP | -0.143
RRIRGRPPRLPRPRPRPYQEPRP | 0.0063
RRIRVRPPRLPRPRPRPHRNPRP | -0.531
RRIRERPPRLPRPRPRPPNYPRP | -0.201
RRIRSRPPRLPRPRPRPQYNPRP | -0.863
RRIRKRPPRLPRPRPRPINDPRP | -0.48
RRIRKRPPRLPRPRPRPMYLPRP | 0.239
RRIRARPPRLPRPRPRPQIEPRP | 0.234
RRIRARPPRLPRPRPRPLHYPRP | -0.174

Sequence | shrunken log2 fold change
RRIRQRPPRLPRPRPRPSNSPRP | -0.294
RRIRVRPPRLPRPRPRPYCIPRP | -0.27
RRIRKRPPRLPRPRPRPDLGPRP | 0.0986
RRIRYRPPRLPRPRPRPNTCPRP | -0.155
RRIRDRPPRLPRPRPRPFVPPRP | -0.0913
RRIRGRPPRLPRPRPRPFSGPRP | -0.325
RRIRERPPRLPRPRPRPWYSPRP | -0.798
RRIRARPPRLPRPRPRPFFDPRP | 0.107
RRIRVRPPRLPRPRPRPQYSPRP | 0.0315
RRIRKRPPRLPRPRPRPGMVPRP | 0.8
RRIRERPPRLPRPRPRPYWNPRP | -0.858
RRIRGRPPRLPRPRPRPYRRPRP | -0.00129
RRIRLRPPRLPRPRPRPCNIPRP | -0.00101
RRIRQRPPRLPRPRPRPDEFPRP | -0.0132
RRIRVRPPRLPRPRPRPMVSPRP | -0.188
RRIRFRPPRLPRPRPRPSRAPRP | 0.352
RRIRCRPPRLPRPRPRPHCDPRP | -0.579
RRIRERPPRLPRPRPRPVFYPRP | -0.437
RRIRRRPPRLPRPRPRPCDTPRP | -0.092
RRIRVRPPRLPRPRPRPCCAPRP | 0.151
RRIRKRPPRLPRPRPRPLGEPRP | 0.445
RRIRDRPPRLPRPRPRPQERPRP | 0.0671
RRIRRRPPRLPRPRPRPKATPRP | 0.165
RRIRFRPPRLPRPRPRPLPYPRP | -0.101
RRIRFRPPRLPRPRPRPLMCPRP | -0.328
